Ends that are not written are not given here. * marks the point of attachment. Biotin = O=C1N[C@H]2[C@H](CS[C@H]2CCCCC(=O)*)N1
B1: His-tagged OmpF (natural protein, UniProt P02931 23-362, looked up)
chain: AEIYNKDGNKVDLYGKAVGLHYFSKGNGENSYGGNGDMTYARLGFKGETQINSDLTGYGQWEYNFQGNNSEGADAQTGNKTRLAFAGLKYADVGSFDYGRNYGVVYDALGYTDMLPEFGGDTAYSDDFFVGRVGGVATYRNSNFFGLVDGLNFAVQYLGKNERDTARRSNGDGVGGSISYEYEGFGIVGAYGAADRTNLQEAQPLGNGKKAEQWATGLKYDANNIYLAANYGETRNATPITNKFTNTSGFANKTQDVLLVAQYQFDFGLRPSIAYTKSKAKDVEGIGDVDLVNYFEVGATYYFNKNMSTYVDYIINQIDSDNKLGVGSDDTVAVGIVYQF

Tests used:
[1] = molecular target: T1, His-tagged TamA (purified recombinant) (E. coli, UniProt P0ADE4 22-577); assay: peptide or protein array
T1 sequence (looked up): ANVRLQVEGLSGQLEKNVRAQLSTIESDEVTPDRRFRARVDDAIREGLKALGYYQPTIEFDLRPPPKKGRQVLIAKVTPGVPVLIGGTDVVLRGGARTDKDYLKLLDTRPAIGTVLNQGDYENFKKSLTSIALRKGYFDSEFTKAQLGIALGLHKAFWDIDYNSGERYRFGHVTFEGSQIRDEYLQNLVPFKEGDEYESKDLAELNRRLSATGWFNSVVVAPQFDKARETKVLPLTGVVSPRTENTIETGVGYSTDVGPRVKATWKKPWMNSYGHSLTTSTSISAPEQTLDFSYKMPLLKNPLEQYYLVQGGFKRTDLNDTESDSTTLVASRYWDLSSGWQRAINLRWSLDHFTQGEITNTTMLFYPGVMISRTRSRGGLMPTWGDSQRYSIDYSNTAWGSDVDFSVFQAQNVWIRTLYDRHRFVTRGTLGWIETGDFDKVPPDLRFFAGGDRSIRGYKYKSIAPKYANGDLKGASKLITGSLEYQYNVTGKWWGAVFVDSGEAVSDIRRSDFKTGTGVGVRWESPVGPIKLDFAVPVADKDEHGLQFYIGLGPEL

[2] = molecular target: His-tagged BamA (purified recombinant) (E. coli, UniProt P0A940 21-810); assay: peptide or protein array
[3] = molecular target: T1, His-tagged TamA (purified recombinant); assay: cross-linking
[4] = molecular target: the molecule itself; assay: semi-native SDS-PAGE

Binder | binding result [1] | binding result [2] | also measured
FDGINFRGAQLASDDNMLSA [FimD peptide 6 (β-strand 6), on the array] | binds |  | 
GGNSHYAYLNLQSGLNIGAA [FimD peptide 2 (β-strand 2)] |  | binds | 
GGYGNANIGYSHSDDIKQSA [FimD peptide 23 (β-strand 23)] | binds |  | 
Biotin-FDGINFRGAQLASDDNMLK [Biotin-FDGINFRGAQLASDDNMLK (FimD peptide 6 with N-terminal biotin and C-terminal lysine)] |  |  | binding result [3]: binds
B1 |  |  | stoichiometry N [4]: 3
INAGLLNYNFSGNSVQNRSA [FimD peptide 1 (β-strand 1)] |  | binds | 

Source: publication PMC5607099 (Molecular microbiology, 2017)
